# Tested on: N#CO
# Test: purified protein
# Format: biochemical, Thermomyces lanuginosus
# Conditions: free enzyme, standard assay: co-substrate bicarbonate (0.2 mL of 15 mM NaHCO3 in 1 mL), 50 mM Tris-HCl pH 8, 60 °C
substance,measurement,value
TlCyn (Thermomyces lanuginosus),Km,0.44 mM
same,kcat,18400 s⁻¹
same,kcat/Km,4.19e+07 M⁻¹ s⁻¹

# From PMC11435769, “Entrapment of Cyanase from Thermomyces lanuginosus Using Biomimetic Silica and Its Application for Cyanate Bioremediation” (Polymers, 2024)
